Measured values published in publication PMC6457497, “The H3K27me3 demethylase REF6 promotes leaf senescence through directly activating major senescence regulatory and functional genes in Arabidopsis”.

T1: GST-REF6C (C2H2 ZnF domain) (Arabidopsis thaliana, UniProt Q9STM3 1239-1360)
T1 sequence: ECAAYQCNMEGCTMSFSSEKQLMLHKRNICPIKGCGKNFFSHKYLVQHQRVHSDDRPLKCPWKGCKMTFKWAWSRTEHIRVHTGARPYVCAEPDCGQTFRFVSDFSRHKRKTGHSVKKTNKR

B1: EIN2 WT probe (dsDNA)
DNA 1: AGGAACCATTCTCTGGATAAACCCTAGC
DNA 2: GCTAGGGTTTATCCAGAGAATGGTTCCT
B2: NYE1 WT probe (dsDNA)
DNA 1: AAAGGAGTCTCTCTGTATTTAGTGGCGT
DNA 2: ACGCCACTAAATACAGAGAGACTCCTTT
B3: ORE1 WT probe (dsDNA)
DNA 1: TACTCGGATCCTCTGTTTTTACAAGACA
DNA 2: TGTCTTGTAAAAACAGAGGATCCGAGTA
B4: NAP WT probe (dsDNA)
DNA 1: TTTCTCCAAACTCTGTTTTCTCTGTAAA
DNA 2: TTTACAGAGAAAACAGAGTTTGGAGAAA
B5: NYE2 WT probe (dsDNA)
DNA 1: CAAAAAGGGTCTCTGTATTTAGTTATTA
DNA 2: TAATAACTAAATACAGAGACCCTTTTTG

Legend:
[1] = target: T1, GST-REF6C (C2H2 ZnF domain); test: EMSA; Light Shift EMSA kit binding buffer (composition, salt, pH not stated), poly(dI-dC), 4 ug protein in 20 ul, room temperature 30 min; 5% polyacrylamide gel with; settings: protein: recombinant; tags: N-terminal GST; label: biotin; blunt
[2] = target: T1, GST-REF6C (C2H2 ZnF domain); test: EMSA; competed by excess unlabeled probe; Light Shift EMSA kit binding buffer (composition, salt, pH not stated), poly(dI-dC), 4 ug protein in 20 ul, room temperature 30 min; 5% polyacrylamide gel with; settings: protein: recombinant; tags: N-terminal GST; label: biotin; blunt

Binder | binding result [1] | binding result [2]
B1 | binds | –
B2 | – | binds
B3 | binds | –
B4 | binds | –
B5 | binds | –
